Results published in article PMC10500007 (2023).

Columns and labels:
[1] = target: T1, αvβ5 (Homo sapiens); test: BLI
T1 chain 1: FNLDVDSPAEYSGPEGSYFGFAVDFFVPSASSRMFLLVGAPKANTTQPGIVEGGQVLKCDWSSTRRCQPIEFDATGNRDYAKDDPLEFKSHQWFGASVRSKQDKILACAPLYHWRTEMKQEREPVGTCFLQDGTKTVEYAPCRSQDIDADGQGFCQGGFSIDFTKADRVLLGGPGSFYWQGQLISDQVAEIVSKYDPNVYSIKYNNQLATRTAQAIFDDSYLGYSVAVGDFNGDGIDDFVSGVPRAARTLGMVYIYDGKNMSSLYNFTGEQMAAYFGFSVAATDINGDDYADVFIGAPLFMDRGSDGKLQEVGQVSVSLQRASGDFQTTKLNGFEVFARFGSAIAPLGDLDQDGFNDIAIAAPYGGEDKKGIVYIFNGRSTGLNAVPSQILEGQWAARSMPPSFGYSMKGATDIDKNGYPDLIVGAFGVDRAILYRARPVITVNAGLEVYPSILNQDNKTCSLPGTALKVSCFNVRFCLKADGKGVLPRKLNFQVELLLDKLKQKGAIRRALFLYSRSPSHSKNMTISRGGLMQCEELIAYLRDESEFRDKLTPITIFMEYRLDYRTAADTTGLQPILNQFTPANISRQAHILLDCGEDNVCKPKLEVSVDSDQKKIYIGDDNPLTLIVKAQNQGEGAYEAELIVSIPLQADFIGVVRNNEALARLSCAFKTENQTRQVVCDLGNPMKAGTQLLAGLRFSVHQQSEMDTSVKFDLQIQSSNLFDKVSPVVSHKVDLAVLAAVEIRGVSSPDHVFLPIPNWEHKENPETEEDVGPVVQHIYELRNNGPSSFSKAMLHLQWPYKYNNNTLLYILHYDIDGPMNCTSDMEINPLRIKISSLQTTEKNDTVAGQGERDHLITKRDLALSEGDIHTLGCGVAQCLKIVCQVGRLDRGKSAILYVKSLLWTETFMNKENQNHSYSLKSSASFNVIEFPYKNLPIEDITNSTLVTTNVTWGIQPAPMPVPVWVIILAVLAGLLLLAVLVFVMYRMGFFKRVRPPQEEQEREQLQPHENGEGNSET
T1 chain 2: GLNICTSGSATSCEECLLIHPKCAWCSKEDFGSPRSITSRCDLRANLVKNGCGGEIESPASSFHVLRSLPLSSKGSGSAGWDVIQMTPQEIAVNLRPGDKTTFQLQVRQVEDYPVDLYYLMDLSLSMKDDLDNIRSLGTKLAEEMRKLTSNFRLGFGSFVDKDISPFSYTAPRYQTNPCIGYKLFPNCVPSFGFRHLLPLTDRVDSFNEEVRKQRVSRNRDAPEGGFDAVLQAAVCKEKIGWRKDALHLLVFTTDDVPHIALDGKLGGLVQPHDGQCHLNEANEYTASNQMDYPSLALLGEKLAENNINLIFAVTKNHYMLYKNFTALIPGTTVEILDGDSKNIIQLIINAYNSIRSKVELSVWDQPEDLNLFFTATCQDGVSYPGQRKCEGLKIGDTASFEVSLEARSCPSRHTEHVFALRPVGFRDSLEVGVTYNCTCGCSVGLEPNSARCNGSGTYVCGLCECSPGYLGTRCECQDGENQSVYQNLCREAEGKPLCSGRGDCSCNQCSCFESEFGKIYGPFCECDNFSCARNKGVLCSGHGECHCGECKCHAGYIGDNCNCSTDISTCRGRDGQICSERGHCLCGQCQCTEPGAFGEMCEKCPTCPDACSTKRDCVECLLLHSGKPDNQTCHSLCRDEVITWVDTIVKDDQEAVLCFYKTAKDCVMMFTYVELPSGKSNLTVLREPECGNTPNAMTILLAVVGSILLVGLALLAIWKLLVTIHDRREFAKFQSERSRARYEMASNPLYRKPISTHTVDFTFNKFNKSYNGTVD

[2] = target: T2, αvβ3 (Homo sapiens); test: BLI
T2 chain 1: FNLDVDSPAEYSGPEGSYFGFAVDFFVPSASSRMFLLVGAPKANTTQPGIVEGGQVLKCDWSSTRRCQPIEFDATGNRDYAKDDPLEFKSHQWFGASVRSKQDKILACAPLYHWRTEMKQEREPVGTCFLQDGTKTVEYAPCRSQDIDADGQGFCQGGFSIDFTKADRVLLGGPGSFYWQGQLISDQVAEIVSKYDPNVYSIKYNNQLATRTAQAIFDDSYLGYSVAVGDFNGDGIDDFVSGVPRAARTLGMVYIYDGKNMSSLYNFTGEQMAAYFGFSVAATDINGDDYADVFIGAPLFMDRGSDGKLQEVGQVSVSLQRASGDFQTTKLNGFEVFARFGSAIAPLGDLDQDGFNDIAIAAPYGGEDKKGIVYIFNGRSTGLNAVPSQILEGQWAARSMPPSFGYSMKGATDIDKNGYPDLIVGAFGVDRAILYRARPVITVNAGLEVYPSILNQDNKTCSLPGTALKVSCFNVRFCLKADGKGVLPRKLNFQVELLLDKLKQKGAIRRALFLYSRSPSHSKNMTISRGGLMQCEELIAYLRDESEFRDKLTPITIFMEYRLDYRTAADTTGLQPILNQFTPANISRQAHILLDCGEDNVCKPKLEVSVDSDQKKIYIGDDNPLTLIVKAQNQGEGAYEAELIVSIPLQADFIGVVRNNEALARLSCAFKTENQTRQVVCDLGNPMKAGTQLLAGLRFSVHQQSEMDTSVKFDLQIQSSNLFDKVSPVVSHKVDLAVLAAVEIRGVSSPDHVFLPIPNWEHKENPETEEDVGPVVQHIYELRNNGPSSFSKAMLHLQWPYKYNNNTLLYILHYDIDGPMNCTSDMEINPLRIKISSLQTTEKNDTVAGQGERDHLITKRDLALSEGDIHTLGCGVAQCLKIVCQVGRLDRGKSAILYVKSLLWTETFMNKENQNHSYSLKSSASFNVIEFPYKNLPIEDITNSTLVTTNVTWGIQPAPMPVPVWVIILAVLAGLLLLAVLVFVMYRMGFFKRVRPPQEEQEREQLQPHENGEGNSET
T2 chain 2: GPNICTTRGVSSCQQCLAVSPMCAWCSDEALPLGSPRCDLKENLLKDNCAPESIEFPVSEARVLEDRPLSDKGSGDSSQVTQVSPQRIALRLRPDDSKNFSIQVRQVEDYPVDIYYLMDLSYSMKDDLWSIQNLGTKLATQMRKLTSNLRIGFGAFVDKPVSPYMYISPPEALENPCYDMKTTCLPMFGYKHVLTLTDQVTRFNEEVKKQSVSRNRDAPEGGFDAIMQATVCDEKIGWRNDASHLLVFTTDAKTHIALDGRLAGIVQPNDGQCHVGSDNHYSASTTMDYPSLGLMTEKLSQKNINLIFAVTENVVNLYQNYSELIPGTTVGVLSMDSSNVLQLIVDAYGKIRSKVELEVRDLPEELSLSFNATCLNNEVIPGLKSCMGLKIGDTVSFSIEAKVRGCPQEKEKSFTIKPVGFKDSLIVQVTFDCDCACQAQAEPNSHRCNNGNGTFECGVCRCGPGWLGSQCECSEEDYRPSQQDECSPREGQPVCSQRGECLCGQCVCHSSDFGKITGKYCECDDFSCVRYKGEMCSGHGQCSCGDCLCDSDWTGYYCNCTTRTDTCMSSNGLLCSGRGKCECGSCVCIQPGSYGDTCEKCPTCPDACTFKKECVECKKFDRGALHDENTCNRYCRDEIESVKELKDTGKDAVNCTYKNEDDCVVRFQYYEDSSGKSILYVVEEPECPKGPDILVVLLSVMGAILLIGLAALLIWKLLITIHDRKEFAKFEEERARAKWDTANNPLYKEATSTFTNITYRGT

[3] = target: αIIbβ3 (Homo sapiens); test: BLI
[4] = target: αvβ1 (Homo sapiens); test: BLI
Chain of αvβ1 (Homo sapiens) (chain, as listed by the source, chain 2 of 2, one chain of several): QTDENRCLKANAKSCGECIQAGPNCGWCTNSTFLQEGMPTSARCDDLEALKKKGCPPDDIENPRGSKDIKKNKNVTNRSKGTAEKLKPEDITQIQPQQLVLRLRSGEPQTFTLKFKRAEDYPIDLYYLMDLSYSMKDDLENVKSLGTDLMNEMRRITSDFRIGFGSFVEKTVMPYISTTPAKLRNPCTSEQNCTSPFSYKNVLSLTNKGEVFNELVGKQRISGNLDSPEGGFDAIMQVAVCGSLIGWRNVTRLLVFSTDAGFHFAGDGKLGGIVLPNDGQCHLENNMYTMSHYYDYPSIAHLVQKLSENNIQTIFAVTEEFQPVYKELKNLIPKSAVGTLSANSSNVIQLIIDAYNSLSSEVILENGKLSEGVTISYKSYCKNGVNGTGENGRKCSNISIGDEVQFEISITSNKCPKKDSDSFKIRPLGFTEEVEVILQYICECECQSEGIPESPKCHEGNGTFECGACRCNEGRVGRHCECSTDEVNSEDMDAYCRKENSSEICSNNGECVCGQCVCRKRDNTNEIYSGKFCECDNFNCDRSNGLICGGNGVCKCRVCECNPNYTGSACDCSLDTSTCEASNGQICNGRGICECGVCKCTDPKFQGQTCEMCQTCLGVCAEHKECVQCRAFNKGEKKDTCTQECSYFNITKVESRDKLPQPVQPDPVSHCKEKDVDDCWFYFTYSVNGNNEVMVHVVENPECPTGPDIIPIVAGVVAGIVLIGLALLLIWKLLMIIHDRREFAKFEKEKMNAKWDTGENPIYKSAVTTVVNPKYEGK

[5] = target: α5β1 (Homo sapiens); test: BLI
Chain of α5β1 (Homo sapiens) (chain, as listed by the source, chain 1 of 2): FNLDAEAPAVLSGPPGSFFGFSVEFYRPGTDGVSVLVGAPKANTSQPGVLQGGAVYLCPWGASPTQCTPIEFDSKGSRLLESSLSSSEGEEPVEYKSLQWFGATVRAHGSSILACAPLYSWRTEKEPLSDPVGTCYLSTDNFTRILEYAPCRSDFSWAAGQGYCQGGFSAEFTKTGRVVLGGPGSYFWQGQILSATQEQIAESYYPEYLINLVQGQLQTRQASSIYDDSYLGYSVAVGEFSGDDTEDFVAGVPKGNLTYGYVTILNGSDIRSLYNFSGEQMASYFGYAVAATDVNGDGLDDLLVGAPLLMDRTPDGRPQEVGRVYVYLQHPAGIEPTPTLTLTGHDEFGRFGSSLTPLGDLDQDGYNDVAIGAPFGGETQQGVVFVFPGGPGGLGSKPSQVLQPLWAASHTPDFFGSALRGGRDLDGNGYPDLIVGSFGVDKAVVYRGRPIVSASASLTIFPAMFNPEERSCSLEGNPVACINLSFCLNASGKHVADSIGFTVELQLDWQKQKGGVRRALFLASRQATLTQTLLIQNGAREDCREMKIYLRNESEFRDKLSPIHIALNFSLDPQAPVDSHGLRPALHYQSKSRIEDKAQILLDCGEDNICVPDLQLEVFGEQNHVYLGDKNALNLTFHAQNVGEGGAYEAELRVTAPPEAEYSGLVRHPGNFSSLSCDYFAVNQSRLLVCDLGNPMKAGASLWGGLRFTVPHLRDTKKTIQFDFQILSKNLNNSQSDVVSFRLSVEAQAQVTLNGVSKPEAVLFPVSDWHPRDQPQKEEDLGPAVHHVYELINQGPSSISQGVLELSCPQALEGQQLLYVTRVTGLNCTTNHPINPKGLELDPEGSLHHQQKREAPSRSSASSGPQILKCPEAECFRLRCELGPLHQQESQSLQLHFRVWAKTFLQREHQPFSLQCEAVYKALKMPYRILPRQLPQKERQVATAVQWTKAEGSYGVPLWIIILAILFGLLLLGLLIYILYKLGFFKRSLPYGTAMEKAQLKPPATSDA
Chain of α5β1 (Homo sapiens) (chain, as listed by the source, chain 2 of 2): as the sequence (chain, as listed by the source, chain 2 of 2, one chain of several) above

[6] = target: α8β1 (Homo sapiens); test: BLI
Chain of α8β1 (Homo sapiens) (chain, as listed by the source, chain 1 of 2): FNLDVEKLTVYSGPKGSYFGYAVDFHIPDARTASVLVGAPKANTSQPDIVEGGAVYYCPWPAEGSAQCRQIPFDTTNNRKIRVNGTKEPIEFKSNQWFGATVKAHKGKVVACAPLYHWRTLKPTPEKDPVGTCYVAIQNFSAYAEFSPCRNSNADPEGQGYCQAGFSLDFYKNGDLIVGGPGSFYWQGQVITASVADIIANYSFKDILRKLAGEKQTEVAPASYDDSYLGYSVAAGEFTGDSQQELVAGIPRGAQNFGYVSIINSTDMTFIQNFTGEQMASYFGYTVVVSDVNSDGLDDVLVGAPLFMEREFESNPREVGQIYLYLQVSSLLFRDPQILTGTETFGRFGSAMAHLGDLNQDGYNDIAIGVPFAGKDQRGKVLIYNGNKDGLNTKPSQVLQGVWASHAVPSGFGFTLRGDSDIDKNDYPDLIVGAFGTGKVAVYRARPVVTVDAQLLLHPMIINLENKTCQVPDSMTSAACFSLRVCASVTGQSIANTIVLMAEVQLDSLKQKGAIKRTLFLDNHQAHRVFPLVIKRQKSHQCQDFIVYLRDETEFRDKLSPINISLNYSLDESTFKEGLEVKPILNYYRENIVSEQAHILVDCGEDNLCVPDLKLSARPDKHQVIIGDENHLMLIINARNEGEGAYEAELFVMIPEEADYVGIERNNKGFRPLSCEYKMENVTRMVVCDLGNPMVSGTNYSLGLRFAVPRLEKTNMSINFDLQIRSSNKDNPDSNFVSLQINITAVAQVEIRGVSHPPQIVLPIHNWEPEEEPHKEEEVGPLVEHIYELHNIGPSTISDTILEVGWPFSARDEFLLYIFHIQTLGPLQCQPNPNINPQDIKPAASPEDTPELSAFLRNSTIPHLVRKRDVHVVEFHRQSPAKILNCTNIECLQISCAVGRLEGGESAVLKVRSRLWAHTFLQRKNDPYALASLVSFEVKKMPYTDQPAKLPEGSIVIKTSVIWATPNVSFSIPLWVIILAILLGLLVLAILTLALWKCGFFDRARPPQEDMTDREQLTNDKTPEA
Chain of α8β1 (Homo sapiens) (chain, as listed by the source, chain 2 of 2): as the sequence (chain, as listed by the source, chain 2 of 2, one chain of several) above

[7] = target: T3, human integrin αvβ8 (soluble, construct not stated) (human, UniProt P06756 31-1048; P26012 43-684); test: BLI
T3 chain 1: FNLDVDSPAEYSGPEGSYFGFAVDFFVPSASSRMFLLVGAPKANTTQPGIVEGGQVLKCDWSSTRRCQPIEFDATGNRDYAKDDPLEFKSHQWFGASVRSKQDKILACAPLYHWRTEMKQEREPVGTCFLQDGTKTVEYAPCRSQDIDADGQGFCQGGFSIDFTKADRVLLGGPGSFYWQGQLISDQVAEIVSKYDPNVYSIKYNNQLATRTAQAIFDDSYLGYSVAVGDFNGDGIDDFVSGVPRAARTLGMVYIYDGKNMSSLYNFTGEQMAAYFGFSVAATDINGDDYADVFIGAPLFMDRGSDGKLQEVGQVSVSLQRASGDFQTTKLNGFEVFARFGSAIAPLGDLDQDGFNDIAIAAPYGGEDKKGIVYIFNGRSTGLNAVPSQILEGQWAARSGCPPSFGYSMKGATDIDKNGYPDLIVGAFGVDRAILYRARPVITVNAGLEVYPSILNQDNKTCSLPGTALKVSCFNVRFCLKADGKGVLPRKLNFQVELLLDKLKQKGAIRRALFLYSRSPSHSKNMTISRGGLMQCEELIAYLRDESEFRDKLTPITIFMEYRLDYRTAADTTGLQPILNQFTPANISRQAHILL
T3 chain 2: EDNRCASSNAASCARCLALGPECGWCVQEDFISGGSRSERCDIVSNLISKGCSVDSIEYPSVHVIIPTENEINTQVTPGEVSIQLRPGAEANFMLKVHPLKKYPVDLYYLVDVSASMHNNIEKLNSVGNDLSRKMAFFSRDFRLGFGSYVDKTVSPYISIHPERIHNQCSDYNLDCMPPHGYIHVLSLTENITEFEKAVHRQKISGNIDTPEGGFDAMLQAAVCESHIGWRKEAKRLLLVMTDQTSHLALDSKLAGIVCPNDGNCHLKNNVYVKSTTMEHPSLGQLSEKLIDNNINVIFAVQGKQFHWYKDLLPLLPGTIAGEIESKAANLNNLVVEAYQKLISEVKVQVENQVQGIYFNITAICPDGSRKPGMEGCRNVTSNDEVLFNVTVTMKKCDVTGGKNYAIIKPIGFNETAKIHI

[8] = target: T4, human integrin αvβ6 (soluble, construct not stated) (human, UniProt P06756 31-1048; P18564 22-709); test: BLI
T4 chain 1: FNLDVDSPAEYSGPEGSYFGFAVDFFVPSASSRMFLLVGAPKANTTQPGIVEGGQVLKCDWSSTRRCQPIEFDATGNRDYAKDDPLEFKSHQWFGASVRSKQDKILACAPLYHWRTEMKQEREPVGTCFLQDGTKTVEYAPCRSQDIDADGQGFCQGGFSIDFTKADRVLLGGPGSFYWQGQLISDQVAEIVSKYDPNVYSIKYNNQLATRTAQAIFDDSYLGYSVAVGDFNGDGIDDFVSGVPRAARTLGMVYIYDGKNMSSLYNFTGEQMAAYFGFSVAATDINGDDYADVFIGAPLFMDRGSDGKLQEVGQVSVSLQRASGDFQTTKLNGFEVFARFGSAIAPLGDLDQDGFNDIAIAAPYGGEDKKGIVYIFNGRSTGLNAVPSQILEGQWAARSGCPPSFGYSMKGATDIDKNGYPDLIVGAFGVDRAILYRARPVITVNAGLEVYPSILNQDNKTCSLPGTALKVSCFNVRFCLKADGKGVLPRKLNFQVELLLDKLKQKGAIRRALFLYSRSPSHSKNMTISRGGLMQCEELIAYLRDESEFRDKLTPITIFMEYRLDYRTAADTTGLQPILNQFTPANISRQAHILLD
T4 chain 2: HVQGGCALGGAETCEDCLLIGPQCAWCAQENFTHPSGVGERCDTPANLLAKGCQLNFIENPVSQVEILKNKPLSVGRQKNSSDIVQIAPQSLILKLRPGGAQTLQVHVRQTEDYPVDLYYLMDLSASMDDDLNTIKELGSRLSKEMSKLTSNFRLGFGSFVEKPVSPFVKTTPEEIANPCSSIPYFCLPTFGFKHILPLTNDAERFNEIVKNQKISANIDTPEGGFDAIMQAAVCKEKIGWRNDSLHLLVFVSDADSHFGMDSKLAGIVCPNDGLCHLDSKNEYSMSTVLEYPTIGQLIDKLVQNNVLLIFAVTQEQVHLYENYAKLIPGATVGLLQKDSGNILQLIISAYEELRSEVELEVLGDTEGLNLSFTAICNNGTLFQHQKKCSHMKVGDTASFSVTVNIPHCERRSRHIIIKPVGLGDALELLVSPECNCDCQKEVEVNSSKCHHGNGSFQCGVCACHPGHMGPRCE

[9] = target: recombinant human integrin αvβ8 headpiece (Expi293F) (human, UniProt P06756); test: ELISA; competition with hLAP1
Chain of recombinant human integrin αvβ8 headpiece (Expi293F) (P06756 whole entry, looked up): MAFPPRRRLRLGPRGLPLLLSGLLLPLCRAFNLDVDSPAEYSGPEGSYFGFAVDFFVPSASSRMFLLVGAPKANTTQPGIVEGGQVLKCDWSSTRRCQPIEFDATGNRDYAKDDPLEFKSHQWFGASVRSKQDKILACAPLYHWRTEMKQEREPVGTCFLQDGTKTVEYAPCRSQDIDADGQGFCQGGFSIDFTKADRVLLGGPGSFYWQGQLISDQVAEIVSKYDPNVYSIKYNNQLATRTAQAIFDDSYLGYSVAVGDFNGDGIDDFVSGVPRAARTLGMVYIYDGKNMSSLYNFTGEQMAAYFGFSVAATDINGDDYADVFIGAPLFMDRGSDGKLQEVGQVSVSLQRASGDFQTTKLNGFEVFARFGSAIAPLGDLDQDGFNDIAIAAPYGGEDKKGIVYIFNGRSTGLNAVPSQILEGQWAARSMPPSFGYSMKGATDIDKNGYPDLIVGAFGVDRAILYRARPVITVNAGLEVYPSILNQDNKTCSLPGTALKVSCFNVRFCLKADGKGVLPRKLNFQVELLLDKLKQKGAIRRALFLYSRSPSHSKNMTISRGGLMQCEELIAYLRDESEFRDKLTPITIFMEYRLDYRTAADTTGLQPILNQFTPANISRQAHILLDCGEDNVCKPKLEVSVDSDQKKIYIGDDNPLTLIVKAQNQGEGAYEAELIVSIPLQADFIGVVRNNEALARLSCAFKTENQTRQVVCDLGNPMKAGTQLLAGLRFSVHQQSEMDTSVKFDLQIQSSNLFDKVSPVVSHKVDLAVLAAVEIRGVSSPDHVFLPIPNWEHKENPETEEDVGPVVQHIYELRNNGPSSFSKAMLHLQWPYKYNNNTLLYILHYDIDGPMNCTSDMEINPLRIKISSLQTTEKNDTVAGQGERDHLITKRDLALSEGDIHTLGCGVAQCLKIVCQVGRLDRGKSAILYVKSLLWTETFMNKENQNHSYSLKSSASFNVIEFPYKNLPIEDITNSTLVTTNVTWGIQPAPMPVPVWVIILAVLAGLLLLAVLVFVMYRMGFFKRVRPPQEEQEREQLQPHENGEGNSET

[10] = target: recombinant human integrin αvβ6 headpiece (Expi293F) (human, UniProt P06756 31-429; P18564 130-371, I287C); test: ELISA; competition with hLAP1

B1: B6_BP_dslf (designed binder)
chain: TKCVVRFVFRGDLAELMLRAVKDHLKKEGPHWNITSTNNGKELVVRGIHESDAKRIAKWVEKRFPRVHTETQCD
modifications: full-length mature chains taken as on K562 cells; soluble ectodomain possible for BLI; divalent cations, glycosylated
- Kd [1]: > 200 nM
- Kd [2]: > 200 nM
- Kd [3]: > 200 nM
- Kd [4]: > 200 nM
- Kd [5]: > 200 nM
- Kd [6]: > 200 nM

B2: B6_BP_dslf (designed binder)
chain: TKCVVRFVFRGDLAELMLRAVKDHLKKEGPHWNITSTNNGKELVVRGIHESDAKRIAKWVEKRFPRVHTETQCD
- Kd [7]: 580 nM
- Kd [8]: 0.11 nM
- IC50 [9]: ~80 nM

B3: MAVI (protein)
chain: TKCVVRFNFRGDMAVIALKAVKDHLKKEGPHWNITTHNDDEVYLVVRGIHESDAKRIAKWVESTIPGISVETQCD
modifications: N/C-terminal disulfide staple (Cys3-Cys74); B8_BP_dslf with MAVY motif changed to MAVI
- Kd [8]: 1.2 nM

B4: MATI (protein)
chain: TKCVVRFNFRGDMATIALKAVKDHLKKEGPHWNITTHNDDEVYLVVRGIHESDAKRIAKWVESTIPGISVETQCD
modifications: N/C-terminal disulfide staple (Cys3-Cys74); B8_BP_dslf with MAVY motif changed to MATI
- Kd [8]: 1.2 nM

B5: B8_BP_dslf (designed binder)
chain: TKCVVRFNFRGDMAVYALKAVKDHLKKEGPHWNITTHNDDEVYLVVRGIHESDAKRIAKWVESTIPGISVETQCD
- Kd [8]: > 1000 nM
- IC50 [10]: > 500 nM

B6: B8_BP-LATY (designed binder)
chain: TKCVVRFNFRGDLATYALKAVKDHLKKEGPHWNITTHNDDEVYLVVRGIHESDAKRIAKWVESTIPGISVETQCD
modifications: full-length mature chains taken as on K562 cells; soluble ectodomain possible for BLI; divalent cations, glycosylated
- Kd [1]: > 1000 nM
- Kd [2]: > 1000 nM
- Kd [3]: > 1000 nM
- Kd [4]: > 1000 nM
- Kd [5]: > 1000 nM
- Kd [6]: > 1000 nM

B7: B8_BP-LATY (designed binder)
chain: TKCVVRFNFRGDLATYALKAVKDHLKKEGPHWNITTHNDDEVYLVVRGIHESDAKRIAKWVESTIPGISVETQCD
- Kd [8]: > 500 nM
